Experiment: soluble on expression in E. coli; label from the status in PepcDB or PDB records

Sequence | soluble on expression in E. coli
MGSDKIHHHHHHMNPKMIRSLKAFTRTVELNSMSAAANELHMTVSAISQQLQRLENDNGISLFHRNTRSLSLTEAGQVFYQSCLDMLAIAAKNQERWDQLTNQPQGQIKIIAPVGFGGGLLSEPLKQLQHEFANVSFQLHMTDEPIDLITAGADLAIRIGPLADSTLYARHLADWHMVPCIAAEHPAAENSIKSFDDLPEGCFIGHIPSLPNKDFPKPKVLLNNMQTVVQLTLDGVGYALLPQPEIKHYIESGRLLRLLPEWEGSPYSVHAVLPIKDNIPAKTERTIEVLSHFFHRL | not soluble
MSENMVNLPDSLYEDYSKLKLTSPSNASSSSSAPPPRLSVVAHPTVEMIIQWVCDIHKPKSYMSDFALHNLAYHRNDFEFLPSLLWESKNTVYIMLQEVFEAYRHLAGHISLRLFPHPLNPLRVYNVFLLFQSMACHPDTSRQFLRAKMPNYFYPLMDTGLIDKSDECMRLAALGVIAHMLKASEDGAVNRYLMESGVVGFCVKPIEFGSTETKKVALYILDKIMSTDQGLYYCCVLADRFYVIDELLKKVLFYLSNMVRPPSSLFSLVTGCYVKLSQNSRARNGIRRYTPFLLFDGTFSRLYAEDPVAANNRIQLLQNLDN | soluble
MGSDKIHHHHHHMNIQKVTFRNADMAWDMAALILLPEGFDESKRYPTMVSVHPFGSCKEQTSSAVYGKALAELGYVVIAFDASFQGESGGSPRYVEDPSQRVEDISRVIDYAVSLPYVDEDRIGGLGICGGGAYIFSSALTEKRLKAVVGITPVNLGRLFREGFSQYNPIGALEAMATQRTAEARGAELQVNELLPPSPEFAKQNGMTERDLFEATDYYKTPRGQAEGGATRMLFSHAQKTLSWDAFAFVETLMTQPMMAVVGQKLGAFGAYRDGHEVYGRSIVSKDRQLVELQDWSHYDLYDHPQAVSLAMEKIGPFLSQHL | not soluble
MGSDKIHHHHHHMTAAAATTAGATGGASRRPADEAIAADARALSEQLKAMRDRLFAPTAMKTLRSFTSGEAAKLIGVSDGYLRQLSLAGEGPQPDTGAGGRRSYSLSDINALRRHLAEQAIAKGNGAKARGYLKWRDAARSEHLQVISVTNFKGGSGKTTSSVHLAQYLALTGHRVLAVDLDPQASLSALFGYQPELDLTGNDTLYGAIRYDAEARPLKDIIRKTYFDGLDLVPGNLELQEFEHTTPQALSARQSGADAGPLFFARVQAALASVADDYDVVVIDCPPQLGYLTLSALCASTSVIVTVHPQMLDVASMNQFLYMTSDLLSVVRDAGGELNFDFLRYLVTRFEPNDGPQAQIVGFMRSLFGDRVLTSAMVKSTAISDAGLTKQTLYEVGRENFTRATYDRAIESLNAVNGEIEALIHAAWGR | not soluble
MCLIVFAWRPGHALPLIVAANRDEFYARPTQPLAAWEDAPGVHAGRDLEAGGTWLGVGPQGRFAALTNIRDPGQAQGPRSRGELVAAFLQGELGVGAYLDQVASRSGQYSGFNLLVGDGQRLGYLHAREATPRLLKAGVYGLSNAGLDTPWPKLVKARDGLENLLDTPEPHRLLALLADNEPAADGDLPETGVGLATEKLLSSVFIASQNYGTRASTVLIVDDQGQRRLVERSFGPFGGHLGEIELLVLEHHHHHH | soluble
MIATKDIRIEKDFLGEKEVPSIAYYGVQTLRAVENFPITGYRIHPSLITAMAIVKKAAALANMDTGYLAKDIGHEIAEAAQEIVDGKFHDQFIVDPIQGGAGTSINMNTNEVIANRALERMGYEKGEYAKISPNTHVNMAQSTNDAFPTGIHIATLMRLEELLITMEELHAAFRAKAKEFDHVIKMGRTHLQDAVPIRLGQEFEAYSRVLARDIKRIKQSRQHLYEVNMGATAVGTGLNANPTYIEQVVKHLRTFSGFPLVGAEHLVDATQNTDAYTEVSAALKVCMMNMSKIANDLRIMASGPRVGLAEIQLPARQPGSSIMPGKVNPVMAEVINQVAFQVIGNDHTICLASEAGQLELNVMEPVLVFNLIQSISIMNNGFRVFREYCIKGITANEELLKQYVEKSVGIITAVNPHIGYEAASRIAREAIETGKSVRELCLEHGVLTEEELDIILDPFEMTHPEIAGASLLKDKKM | not soluble
MGSDKIHHHHHHMTNDPIVFQMSVVKNKPQSYRKDKNKDICPFCDVENLTDIYAKDGDIIWLHNKFPTLRDTLQTVLIESSDHNGDISTYTKKYNRKLLRFSLQCFERMNRDDKYQSVVWYKNYGPHSGGSLIHPHMQIVGFKNVDGYKYIHPNNFEGETLFDKDGVEVNVAEHPVQGYTELNINLLNRNSVDLWADWIQSGAKYLLNIMYDGRCDSYNLFFYPRNDEGICAKFITRFDAPPYFVGYKLSQVNDEMTLTKEARRFKEFYDNDSKIK | not soluble
GSHMTIEQMVDRLLSYPERTKMQILAPIVSGKKGTHAKTLEDIRKQGYVRVRIDREMRELTGDIELEKNKKHSIDVVVDRIIIKDGIAARLADSLETALKLADGKVVVDVIGEGELLFS | soluble
MAKNTSSNAFRKIDVDQYNEDNFREDDGVESAAAGPDESEITTLLTQGKSVEALLSALQNAPLRCKNQNVKDHALNITLRVLLSIKSTQMDQAIDTLDQNDLIDVLMKYIYRGFEIPSEGSSGHLLQWHEKAFAKGGVGCIVRVLSDTNRALEHHHHHH | soluble
MIDALLQEKITTRLIDTAPTIPVGVSNRHVHLSQQDVEALFGVGYQLTPFKPLRQPGQFAAEECVTVVGPKGSLTHVRVLGPVRPTSQLEISRADCFTLGIKAPVRESGQLENAGDALLVGPKGHVELHSQVICAWRHIHMSPQDARLLNVSNGQKVSVRSHGERQLTFDEVVVRVRNDFALELHIDTEEANAAGLKNGAQVTLIR | not soluble
MNQRLVYVVSDSGGETAELVVKAAASQFHASPIQVKRVPYVEDKTTLAEVVALAKMNRAIIAFTLVVPEMREFLLAEAAREGVVAYDIIGPLIEKMSHLFQLTPRYEPGQVRVLDEDYFKKIEAIEFAVKYDDGRDPRGILRADIVLIGVSRTSKTPLSQYLAHKRLKVANVPIVPEVEPPEQLFRVGPGKCFGLKISPDKLLSIRRERLKSLGLNDQAIYANMDRIKEELAYFDEVVKKIGCDVIDVTNKAVEETASIIMKKLKR | not soluble
HMSKVPRNFRLLEELEKGEKGFGPESCSYGLADSDDITMTKWNGTILGPPHSNHENRIYSLSIDCGPNYPDSPPKVTFISKINLPCVNPTTGEVQTDFHTLRDWKRAYTMETLLLDLRKEMATPANKKLRQPKEGETF | soluble
MGSDKIHHHHHHMIYIGLPQWSHPKWARLGITSLEEYARHFNCVEGNTTLYALPKAEIVDRWYAQTTDDFRFCFKFPATISHQAALRHCDDLVQAFFTRLAPLETRIGQYWLQLPAAFGPRDLPALWQFLDALPATFTYGVEVRHPCFFDKGEDEQRLNRGLHARGVNRVILDSRPVHAAHPHSEAVRDAQRKKPKVPVHAVVTASHPMVRFIGSDNMAQNREFFAAWLQKLPQWRQTTTPFLFLHTPDIAQAPELVNTLWHDLRSVLPEIGTAPSIPQQSSLF | not soluble
MSLENWRFIEANSDYMVSDHGRILSFKGKSKLIISSSITAKGYEYVAIRQKGIYVGYSVHRLVATAFIPNPKRLPQVNHLDGNKLNNHVANLEWCDAYDNVMHAIRTGLRPSSPALSPVPCATTDEAGNILQAYPSMNALVKGEQMNPKQRNWLVLHLLHPERLKQSAMKKKSRAERSGSEECFLIAPEIPVLTVKADSIGEFEAGNPLGIGKSSNSVGEFEAGNPLGIGKSSNSVEEFEAGNPLGIGKSSNSVGEFKAGNVCVQPVSFSFVSSPFPLISLFAPIHHSVTQHYYRRLSPEESAIFGFNTYILPRERGQRKEFLQEGHHHHHH | not soluble
MGGSHHHHHHGMASMTGGQQMGRDLYDDDDKDRWGSELEISMEQVSASIGNFTVDLFNKLNETNRDKNIFFSPWSISSALALTYLAAKGSTAREMAEVLHFEQAENIHSGFKELLTAFNKPRNNYSLRSANRIYVEKTYALLPTYLQLSKKYYKAEPQKVNFKTAPEQSRKEINTWVEKQTESKIKNLLSSDDVKATTRLILVNAIYFKAEWEVKFQAEKTSIQPFRLSKNKSKPVKMMYMRDTFPVLIMEKMNFKMIELPYVKRELSMFILLPDDIKDGTTGLEQLERELTYERLSEWADSKMMTETLVDLHLPKFSLEDRIDLRDTLRNMGMTTAFTTNADFRGMTDKKDLAISKVIHQSFVAVDEKGTEAAAATAVIISFTTSVINHVLKFKVDHPFHFFIRHNKSKTILFFGRFCCPVE | soluble
MMIRGIRGATTVERDTEEEILQKTKQLLEKIIEENHTKPEDVVQMLLSATPDLHAVFPAKAVRELSGWQYVPVTCMQEMDVTGGLKKCIRVMMTVQTDVPQDQIRHVYLEKAVVLRPDLSLTKNTEL | soluble
MQEKDCIFCKIVRGEVPAKKVYEDDKVLAFHDINPVAPVHILIIPKKHIMGIQTLEPEDECLVGHMFYVARKIAEDLGIAPDENLNKGYRLVFNVGKDAGQSVFHLHLHLIGGREMSWPPG | soluble
MKTIRRYDVNEDRGHTGLVEAGDFYYLNYCVGNVGQDIESQINGAFDEMERRLALVGLTLDAVVQMDCLFRDVWNIPVMEKMIKERFNGRYPARKSIQTEFAHHGGPQGLLFQVDGVAYSKHISMT | soluble
MLPAVDDRCSGGYAGDVVADETIIDLAGPSEGLGVRPDKQRAAAYAGAYYIRDKTHQLGTGEKMREVTKRGFGIGVTAVSRVGSADDLYSVSPVITAISIDKPSPGSTVALGRALQMHQANGFAASVKTKANARLPYLCVDMGYSVRPDFTTVVHDHGFAPVMRYPVSRQTVWASEKPEFGSQSPGPVQINSAFYCPAALPLARQRRLVRRLNELLDEQDGFEAHDQALQKLLPLLMGTNSRPLKFVSKRKRSPETIPTYQIDLVCPAVQGRVKCPLKPESLIIAFDQPEVKPTWSADRYRCCSKSQIRHTYSSEQWKLAQWGMVPGSWEHAIYYEAARSLTEQRFSIMKSQHLSGREHLKWSPRREPMISVIIALWIAATNLAIQDSHVAKMPRPSSIKKQKRRLERDLGRALMSTPPRT | not soluble
NGGIPHDNLVLIRMKPDENGRFGFNVKGGYDQKMPVIVSRVAPGTPADLCVPRLNEGDQVVLINGRDIAEHTHDQVVLFIKASCERHSGELMLLVRPNAVYDVVEE | soluble
AHHHHHHGSKIAIPTNGGGREDTVAPLFARAPAFYIAEVDEKGNIISEKVIQNPAATAGRGAGPIAVQMLINEGVDTIVAPQVVPNALGAIQAAGIRVYYVTPGTPVEEAIKVATTGQGGQLPSLPQIPTPVTPAPAMYGPVYPPFGWGRGWGKGRGWGRGWGSILGYCPWTGMPSRRALRWYYGWW | not soluble
MSLSDAISFRPMTEADLDAVLKIEYAAFSHPWTRGIFSEGLKNYHCWLMFEGSQQVGHGVIQIILDEAHLLNITVKPESQGRGLGLRLLEHLMREAAGHQARECFLEVRASNQAAYRLYERYGFNEIGRRRDYYPAVGGREDALVMACTLFDEGHHHHHH | soluble
MRHALITAGTKGLGKQVTEKLLAKGYSVTVTYHSDITAMKKMKETYKNMEERLQFVQADVTKKEDLHKIVEEAISRFGKIDFLINNAGPYVFERKKLVDYEEDEWNEMIQGNLTAVFHLLKLVVPIMRKQNFGRIINYGFQGADSAPGWIYRSAFAAAKVGLVSLTKTVAYEEAEYGITANMVCPGDIIGEMKEATIQEARQLKERNTPIGRSGTGEDIARTISFLCEEDSDMITGTIIEVTGAVDVIHRHR | not soluble
MTEKSLKLFIVLSRAYRSINDHMNKHIHKHGLNPTEFAVLELLYHKGDQPLQQIGDKILLASGSITYVVDKLEQKELLIRKASPTDRRVTFAQITEKGIGLLNDIFPDHAAEIDEMISVLSEEEVEMCTEMLKRVGLNAKQFHNK | not soluble
